Our source for the Trimeric HA Binding: RLU values is patent US20150086555A1.

Details in all cases: remark: other sources report otherwise
Test [1] deals with T1, recombinant soluble homotrimeric HA of A/chicken/Vietnam/NCVD-016/08 (H5N1) (Influenza A virus A/chicken/Vietnam/NCVD-016/2008(H5N1)). The experiment in a line: trimeric HA microarray, transfection supernatant set 5.
The target of test [2] is T2, recombinant soluble homotrimeric HA of A/Vietnam/1203/04 (H5N1) (Influenza A virus A/VietNam/1203/2004(H5N1)). Described as above.
The target of test [3] is T3, recombinant soluble homotrimeric HA of A/Japan/305/57 (H2N2) (Influenza A virus A/Japan/305/1957(H2N2)). The test is described as above.
For test [4], the target named is recombinant soluble homotrimeric HA of A/duck/Yangzhou/02/05 (H8N4) (Influenza A virus A/duck/Yangzhou/02/2005(H8N4)). The test is described as above.
Test [5] concerns the target recombinant soluble homotrimeric HA of A/South Carolina/1/18 (H1N1) (Influenza A virus A/South Carolina/1/18 (H1N1)). The test is described as above.
In test [6] the target is T4, recombinant soluble homotrimeric HA of A/Wisconsin/67/05 (H3N2) (Influenza A virus A/Wisconsin/67/2005(H3N2)). Described as above.
Test [7] has as its target recombinant soluble homotrimeric HA of A/swine/Ontario/01911-2/99 (H4N6) (Influenza A virus A/Swine/Ontario/01911-2/99 (H4N6)). Described as above.
The target of test [8] is T1, recombinant soluble homotrimeric HA of …. The experiment in a line: HA microarray, BCC supernatant.
For test [9], the target named is T2, recombinant soluble homotrimeric HA of …. The experiment in a line: HA microarray, BCC supernatant.
Test [10] concerns the target recombinant soluble homotrimeric HA of A/Netherlands/219/03 (H7N7) (Influenza A virus A/Netherlands/219/03(H7N7)). The experiment in a line: HA microarray, BCC supernatant.
Test [11] concerns the target T3, recombinant soluble homotrimeric HA of …. The experiment in a line: HA microarray, BCC supernatant.
Test [12] deals with T4, recombinant soluble homotrimeric HA of …. The experiment in a line: HA microarray, BCC supernatant.
For test [13], the target named is recombinant homotrimeric HA A/Netherlands/219/03 H7N7 (Influenza A virus A/Netherlands/219/03(H7N7)). The experiment in a line: protein microarray, purified IgG, trimeric HA.
Test [14] concerns the target recombinant homotrimeric HA A/Japan/305/57 H2N2 (Influenza A virus A/Japan/305/1957(H2N2)). The experiment in a line: protein microarray, purified IgG, trimeric HA.
Test [15] deals with recombinant homotrimeric HA A/Wisconsin/67/05 H3N2 (Influenza A virus A/Wisconsin/67/2005(H3N2)). The experiment in a line: protein microarray, purified IgG, trimeric HA.
The target of test [16] is recombinant homotrimeric HA A/Egypt/3300-NAMRU3/08 H5N1 (Influenza A virus A/Egypt/3300-NAMRU3/2008(H5N1)). The experiment in a line: protein microarray, purified IgG, trimeric HA.
The target in test [17] is recombinant homotrimeric HA A/duck/Yangzhou/02/05 H8N4 (Influenza A virus A/duck/Yangzhou/02/2005(H8N4)). The experiment in a line: protein microarray, purified IgG, trimeric HA.
For test [18], the target named is recombinant homotrimeric HA A/chicken/Vietnam/NCVD-016/08 H5N1 (Influenza A virus A/chicken/Vietnam/NCVD-016/2008(H5N1)). The experiment in a line: protein microarray, purified IgG, trimeric HA.
Test [19] deals with recombinant homotrimeric HA A/Hong Kong/2108/03 H9N2 (Influenza A virus A/HK/2108/2003(H9N2)). The experiment in a line: protein microarray, purified IgG, trimeric HA.
Test [20] has as its target recombinant homotrimeric HA A/California/4/09 H1N1 (Influenza A virus A/California/04/2009(H1N1)). The experiment in a line: protein microarray, purified IgG, trimeric HA.
Test [21] concerns the target recombinant homotrimeric HA A/South Carolina/1/18 H1N1 (Influenza A virus A/South Carolina/1/18 (H1N1)). The experiment in a line: protein microarray, purified IgG, trimeric HA.
Test [22] concerns the target recombinant homotrimeric HA A/Indonesia/5/05 H5N1 (Influenza A virus A/Indonesia/5/2005(H5N1)). The experiment in a line: protein microarray, purified IgG, trimeric HA.

B1: TCN-545 (5082_I15) (antibody, V domains shown)
VH: QVQLQQWGAGLLKPSETLSLSCAVFGGSFSDYYWTWIRQPPGKGLEWIGEIKHSGRTNYNPSLESRVTISVDTSKNQFSLKLSSVTAADTAIYYCARGTDPDTEGYCRSGSCSAFDFWGQGTLVTVSS
VL: EIVLTQSPGTLSLSPGERATLSCRASHFVNYRSLAWYQQTPGQVPRLLIYGASTRATGIPDRFSGSGSGTDFTLTISRLEPEDFAVYFCQQYGGSPRYTFGQGTRLEIK
As for B1, the Trimeric HA Binding: RLU in test [1] is 3230 RLU; in test [2], 42900 RLU; in test [3], 1360 RLU; in [4] it was 13200 RLU; in test [5], 900 RLU; in test [6], 32000 RLU. The Trimeric HA Binding: RLU turned out to be 2940 RLU in test [7]; 392 RLU in test [8]; 235 RLU in test [9]; 1180 RLU in test [10]; 157 RLU in test [11]; 575 RLU in test [12]. In addition, the Trimeric HA Binding: RLU in test [13] was 1490 RLU; in test [14], 1400 RLU; in test [15], 23700 RLU; in test [16], 1410 RLU; in test [17], 396 RLU; in test [18], 679 RLU. Besides, the Trimeric HA Binding: RLU in test [19] was found to be 262 RLU; in test [20] it was 672 RLU; in test [21], 289 RLU; in test [22], 193 RLU.
